Here are results for one molecule from article PMC4895024 (2016).

The target of test [1] is T1, ProAgio (D1-CD2 variant 3) ( (human and rat D1-CD2 are …, UniProt P06729 25-206)). The test is described as follows: SPR.
Test [2] addresses T1, ProAgio (D1-CD2 variant 3). Put plainly: ELISA; without polyLys. On the technique in general: ELISA stands for enzyme-linked immunosorbent assay.

B1: recombinant integrin αvβ3 (commercial) (receptor)
chain 1: FNLDVDSPAEYSGPEGSYFGFAVDFFVPSASSRMFLLVGAPKANTTQPGIVEGGQVLKCDWSSTRRCQPIEFDATGNRDYAKDDPLEFKSHQWFGASVRSKQDKILACAPLYHWRTEMKQEREPVGTCFLQDGTKTVEYAPCRSQDIDADGQGFCQGGFSIDFTKADRVLLGGPGSFYWQGQLISDQVAEIVSKYDPNVYSIKYNNQLATRTAQAIFDDSYLGYSVAVGDFNGDGIDDFVSGVPRAARTLGMVYIYDGKNMSSLYNFTGEQMAAYFGFSVAATDINGDDYADVFIGAPLFMDRGSDGKLQEVGQVSVSLQRASGDFQTTKLNGFEVFARFGSAIAPLGDLDQDGFNDIAIAAPYGGEDKKGIVYIFNGRSTGLNAVPSQILEGQWAARSMPPSFGYSMKGATDIDKNGYPDLIVGAFGVDRAILYRARPVITVNAGLEVYPSILNQDNKTCSLPGTALKVSCFNVRFCLKADGKGVLPRKLNFQVELLLDKLKQKGAIRRALFLYSRSPSHSKNMTISRGGLMQCEELIAYLRDESEFRDKLTPITIFMEYRLDYRTAADTTGLQPILNQFTPANISRQAHILLDCGEDNVCKPKLEVSVDSDQKKIYIGDDNPLTLIVKAQNQGEGAYEAELIVSIPLQADFIGVVRNNEALARLSCAFKTENQTRQVVCDLGNPMKAGTQLLAGLRFSVHQQSEMDTSVKFDLQIQSSNLFDKVSPVVSHKVDLAVLAAVEIRGVSSPDHVFLPIPNWEHKENPETEEDVGPVVQHIYELRNNGPSSFSKAMLHLQWPYKYNNNTLLYILHYDIDGPMNCTSDMEINPLRIKISSLQTTEKNDTVAGQGERDHLITKRDLALSEGDIHTLGCGVAQCLKIVCQVGRLDRGKSAILYVKSLLWTETFMNKENQNHSYSLKSSASFNVIEFPYKNLPIEDITNSTLVTTNVTWGIQPAPMPV
chain 2: GPNICTTRGVSSCQQCLAVSPMCAWCSDEALPLGSPRCDLKENLLKDNCAPESIEFPVSEARVLEDRPLSDKGSGDSSQVTQVSPQRIALRLRPDDSKNFSIQVRQVEDYPVDIYYLMDLSYSMKDDLWSIQNLGTKLATQMRKLTSNLRIGFGAFVDKPVSPYMYISPPEALENPCYDMKTTCLPMFGYKHVLTLTDQVTRFNEEVKKQSVSRNRDAPEGGFDAIMQATVCDEKIGWRNDASHLLVFTTDAKTHIALDGRLAGIVQPNDGQCHVGSDNHYSASTTMDYPSLGLMTEKLSQKNINLIFAVTENVVNLYQNYSELIPGTTVGVLSMDSSNVLQLIVDAYGKIRSKVELEVRDLPEELSLSFNATCLNNEVIPGLKSCMGLKIGDTVSFSIEAKVRGCPQEKEKSFTIKPVGFKDSLIVQVTFDCDCACQAQAEPNSHRCNNGNGTFECGVCRCGPGWLGSQCECSEEDYRPSQQDECSPREGQPVCSQRGECLCGQCVCHSSDFGKITGKYCECDDFSCVRYKGEMCSGHGQCSCGDCLCDSDWTGYYCNCTTRTDTCMSSNGLLCSGRGKCECGSCVCIQPGSYGDTCEKCPTCPDACTFKKECVECKKFDRGALHDENTCNRYCRDEIESVKELKDTGKDAVNCTYKNEDDCVVRFQYYEDSSGKSILYVVEEPECPKGPD
In the case of B1, the figures for the Kd in test [1] and in test [2] were 2 nM and 35 nM, respectively.

The term Kd denotes the equilibrium constant for the complex coming apart. Low readings indicate a tighter complex, high ones a looser complex.
